Results from publication PMC7138851, “Quantitative assessment of the determinant structural differences between redox-active and inactive glutaredoxins” (Nature Communications, 2020).

Legend:
Assay in all cases: purified protein, by the assay type
Settings in all cases: pH 8.0; 25.0 °C
[1] = substrate: N[C@@H](CCC(=O)N[C@@H](CS)C(=O)NCC(=O)O)C(=O)O; set-up: GSSCys oxidoreductase assay, steady-state kinetics, coupled NADPH consumption at 340 nm, pH 8.0, 25 °C
Description: (§1) Steady-state kinetics of wild-type and mutant ScGrx7 and HsGrx5^C122S in the GSSCys and [compound left out] assays were determined spectrophotometrically by monitoring the consumption of NADPH at 340 nm and 25 °C using a thermostated Jasco V-650 UV/vis spectrophotometer[11],[19],[25]. Fresh stock solutions of NADPH, GSH, GR, and GSSCys or [compound left out] were prepared in assay buffer containing 0.1 M Tris/HCl, 1 mM EDTA, pH 8.0 before each experiment. Both assays were performed with 0.1 mM NADPH and 1 U/ml ScGR. The following final protein concentrations were used for Y110F/H/A (5–150 nM), D144A/K (10 nM), E147A/K (10 nM), R153A/E (25–50 nM), ScGrx7^WP (20 nM), ScGrx7^loop (up to 1.4 µM), ScGrx7^WP+loop (up 2.6 µM), HsGrx5^C122S (up to 15 µM), HsGrx5^RR (up to 12 µM), HsGrx5^loop (up to 1.6 µM), and HsGrx5^RR+loop (up to 4.0 µM). For the GSSCys assays, GSH was varied between 50 µM and 1.5 mM at fixed GSSCys concentrations (25, 50, 100, and 150 µM). NADPH, GSH, and GR were mixed in assay buffer before Grx was added and a baseline was recorded for 30 s. All GSSCys assays were started by the addition of GSSCys. The absorbance of a reference cuvette containing all components but no Grx was measured in parallel and subtracted from the obtained Grx activity. For the [compound left out] assays, GSH was varied between 100 µM and 2.0 mM at fixed concentrations of [compound left out] (0.18, 0.37, 0.55, and 0.74 mM). NADPH, GSH, and [compound left out] were preincubated in assay buffer for 2 min before GR was added and a baseline was recorded for 30 s. All [compound left out] assays were started by the addition of enzyme. Kinetic data were analyzed in Excel and SigmaPlot 13 by nonlinear and linear regression according to Michaelis–Menten, Lineweaver–Burk, Eadie–Hofstee, and Hanes theory[11],[19],[25]. 13 Supplementary Figure 7 Supplementary Figure 7 | GSSCys assay steady-state kinetics of ScGrx7 wild-type enzyme and D144X mutants. (a) Michaelis-Menten plots of the GSH-dependent reaction velocity at different initial concentrations of GSSCys. […]

[2] = substrate: N[C@@H](CCC(=O)N[C@@H](CSSC[C@H](N)C(=O)O)C(=O)NCC(=O)O)C(=O)O; set-up: GSSCys oxidoreductase assay, steady-state kinetics, coupled NADPH consumption at 340 nm, pH 8.0, 25 °C
Description: as §1

[3] = substrate: N[C@@H](CCC(=O)N[C@@H](CS)C(=O)NCC(=O)O)C(=O)O; set-up: GSSCys oxidoreductase assay, steady-state kinetics, coupled NADPH consumption at 340 nm, pH 8.0, 25 °C; remark: listed apart in the source
Description: as §1

[4] = substrate: N[C@@H](CCC(=O)N[C@@H](CS)C(=O)NCC(=O)O)C(=O)O; set-up: Disulfide oxidoreductase assay, steady-state kinetics, coupled NADPH consumption at 340 nm, pH 8.0, 25 °C
Description: Steady-state kinetics of wild-type and mutant ScGrx7 and HsGrx5^C122S in the GSSCys and [compound left out] assays were determined spectrophotometrically by monitoring the consumption of NADPH at 340 nm and 25 °C using a thermostated Jasco V-650 UV/vis spectrophotometer[11],[19],[25]. Fresh stock solutions of NADPH, GSH, GR, and GSSCys or [compound left out] were prepared in assay buffer containing 0.1 M Tris/HCl, 1 mM EDTA, pH 8.0 before each experiment. Both assays were performed with 0.1 mM NADPH and 1 U/ml ScGR. The following final protein concentrations were used for Y110F/H/A (5–150 nM), D144A/K (10 nM), E147A/K (10 nM), R153A/E (25–50 nM), ScGrx7^WP (20 nM), ScGrx7^loop (up to 1.4 µM), ScGrx7^WP+loop (up 2.6 µM), HsGrx5^C122S (up to 15 µM), HsGrx5^RR (up to 12 µM), HsGrx5^loop (up to 1.6 µM), and HsGrx5^RR+loop (up to 4.0 µM). For the GSSCys assays, GSH was varied between 50 µM and 1.5 mM at fixed GSSCys concentrations (25, 50, 100, and 150 µM). NADPH, GSH, and GR were mixed in assay buffer before Grx was added and a baseline was recorded for 30 s. All GSSCys assays were started by the addition of GSSCys. The absorbance of a reference cuvette containing all components but no Grx was measured in parallel and subtracted from the obtained Grx activity. For the [compound left out] assays, GSH was varied between 100 µM and 2.0 mM at fixed concentrations of [compound left out] (0.18, 0.37, 0.55, and 0.74 mM). NADPH, GSH, and [compound left out] were preincubated in assay buffer for 2 min before GR was added and a baseline was recorded for 30 s. All [compound left out] assays were started by the addition of enzyme. Kinetic data were analyzed in Excel and SigmaPlot 13 by nonlinear and linear regression according to Michaelis–Menten, Lineweaver–Burk, Eadie–Hofstee, and Hanes theory[11],[19],[25].

[5] = substrate: N[C@@H](CCC(=O)N[C@@H](CSSC[C@H](N)C(=O)O)C(=O)NCC(=O)O)C(=O)O; set-up: GSSCys oxidoreductase assay, steady-state kinetics, coupled NADPH consumption at 340 nm, pH 8.0, 25 °C; remark: listed apart in the source
Description: as §1

B1: ScGrx7 (Saccharomyces cerevisiae S288C) (protein)
chain: SVNESITTHHPDSLVTFDNSGNAPGTHQSVHDTVNTQDKEAEEVDKNSGDAEFDAAAEYNKIMEQSPMIVFSKTGCPYSKKLKALLTNSYTFSPSYYVVELDRHEHTKELQDQIEKVTGRRTVPNVIIGGTSRGGYTEIAELHKNDELLDSFKKWSDGAFTVKANSQSESA
notes: E. coli XL1-Blue, pQE30; N-terminal MRGS(H)6 tag
- Km [1]: 744 µM
- kcat [1]: 206 s⁻¹
- Km [2]: 257 µM
- Km [3]: 286 ± 45 µM
- kcat [3]: 79.9 ± 27 s⁻¹
- kcat/Km [3]: 273000 M⁻¹ s⁻¹
- Km [4]: 1100 ± 100 µM
- kcat [4]: 72.9 ± 3.4 s⁻¹
- kcat/Km [4]: 66500 M⁻¹ s⁻¹
- Km [5]: 266 ± 129 µM
- kcat [5]: 163 ± 54.8 s⁻¹
- kcat/Km [5]: 612000 M⁻¹ s⁻¹
